Here are results for one substance from publication PMC11081419.

The target of this test is CCL18 (human) (UniProt P55774). As to the kind of experiment: SPR. Conditions: domain or fragment.
Sequence of CCL18 (human) (P55774 21-89): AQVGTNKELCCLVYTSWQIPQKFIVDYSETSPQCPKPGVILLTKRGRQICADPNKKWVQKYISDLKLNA

Sequence of EVA‐ACA1001(ΔN) (A0A023FFD0 29-136, stated change not applied): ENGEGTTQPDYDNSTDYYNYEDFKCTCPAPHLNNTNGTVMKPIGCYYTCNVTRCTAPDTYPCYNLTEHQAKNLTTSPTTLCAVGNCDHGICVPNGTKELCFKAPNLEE

For orientation: Kd means the free concentration of one partner at which half of the binding sites on the other are occupied at equilibrium, for simple one-to-one binding. Regarding “EVA‐ACA1001(ΔN) (from UniProt A0A023FFD0)”, the dissociation constant (Kd) was < 0.1 nM.
